In doi:10.1101/2021.01.21.427566, “Gradual opening of Smc arms in prokaryotic condensin” (bioRxiv, 2021):

Tests used:
[1] = target: the molecule itself; test: EPR-DEER; MTSL-labelled single-cysteine Smc, 5 µM, mixed with ScpA and ScpB (similar trends without ScpAB); apo, or with 1 mM ATP and 10 µM dsDNA40; 50 mM Tris-HCl pH 7.5, 50 mM NaCl, 2 mM MgCl2, 40 % ethylene glycol-d6, 90 % deuterium oxide; shock-frozen, DEER traces at 50 K, Q band; spin-spin distances between the two Smc of a dimer
[2] = target: the molecule itself; test: cross-linking; purified single-cysteine Smc, 30 µM dimers with 600 µM M3M in 50 mM Tris-HCl pH 7.5, 200 mM NaCl, 4 °C overnight; non-reducing SDS-PAGE, Coomassie; reversed by up to 10 mM DTT

| Protein | binding result [1] | binding result [2] |
| --- | --- | --- |
| Smc^3S(R643C, E1118Q) (natural protein, B. subtilis, UniProt P51834 1-1186, looked up, MTSL spin label on the engineered cysteine 643, Smc, Bacillus subtilis (Bsu), cysteine-lite Smc^3S background with R643C and Walker B E1118Q; also called Smc^3S(EQ) single cysteine mutant; source: E. coli BL21-Gold (DE3), purified (HiTrap Blue, Heparin, gel filtration)) MFLKRLDVIGFKSFAERISVDFVKGVTAVVGPNGSGKSNITDAIRWVLGEQSARSLRGGKMEDIIFAGSDSRKRLNLAEVTLTLDNDDHFLPIDFHEVSVTRRVYRSGESEFLINNQPSRLKDIIDLFMDSGLGKEAFSIISQGKVEEILSSKAEDRRSIFEEAAGVLKYKTRKKKAENKLFETQDNLNRVEDILHELEGQVEPLKIQASIAKDYLEKKKELEHVEIALTAYDIEELHGKWSTLKEKVQMAKEEELAESSAISAKEAKIEDTRDKIQALDESVDELQQVLLVTSEELEKLEGRKEVLKERKKNAVQNQEQLEEAIVQFQQKETVLKEELSKQEAVFETLQAEVKQLRAQVKEKQQALSLHNENVEEKIEQLKSDYFELLNSQASIRNELQLLDDQMSQSAVTLQRLADNNEKHLQERHDISARKAASETEFARIEQEIHSQVGAYRDMQTKYEQKKRQYEKNESALYQAYQYVQQARSKKDMLETMQGDFSGFYQGVKEVLKAKERLGGIRGAVLELISTEQKYETAIEIALGASAQHVVTDDEQSARKAIQYLKQNSFGRATFLPLSVIRDRQLQSRDAETAARHSSFLGVASELVTFDPAYRSVIQNLLGTVLITEDLKGANELAKLLGHCYRIVTLEGDVVNPGGSMTGGAVKKKNNSLLGRSRELEDVTKRLAEMEEKTALLEQEVKTLKHSIQDMEKKLADLRETGEGLRLKQQDVKGQLYELQVAEKNINTHLELYDQEKSALSESDEERKVRKRKLEEELSAVSEKMKQLEEDIDRLTKQKQTQSSTKESLSNELTELKIAAAKKEQASKGEEDNLARLKKELTETELALKEAKEDLSFLTSEMSSSTSGEEKLEEAAKHKLNDKTKTIELIALRRDQRIKLQHGLDTYERELKEMKRLYKQKTTLLKDEEVKLGRMEVELDNLLQYLREEYSLSFEGAKEKYQLETDPEEARKRVKLIKLAIEELGTVNLGSIDEFERVNERYKFLSEQKEDLTEAKNTLFQVIEEMDEEMTKRFNDTFVQIRSHFDQVFRSLFGGGRAELRLTDPNDLLHSGVEIIAQPPGKKLQNLNLLSGGERALTAIALLFSILKVRPVPFCVLDQVEAALDEANVFRFAQYLKKYSSDTQFIVITHRKGTMEEADVLYGVTMQESGVSKVISVKLEETKEFVQ | binds | – |
| Smc^3SV(Y944C) (natural protein, B. subtilis, UniProt P51834 1-1186, looked up, engineered cysteine 944 cross-linked with M3M, Smc, Bacillus subtilis (Bsu), cys-free Smc^3SV background with Y944C; also called Y944C at contact 3^C; source: E. coli BL21-Gold (DE3), purified (HiTrap Blue, Heparin, gel filtration without reducing agent)) MFLKRLDVIGFKSFAERISVDFVKGVTAVVGPNGSGKSNITDAIRWVLGEQSARSLRGGKMEDIIFAGSDSRKRLNLAEVTLTLDNDDHFLPIDFHEVSVTRRVYRSGESEFLINNQPSRLKDIIDLFMDSGLGKEAFSIISQGKVEEILSSKAEDRRSIFEEAAGVLKYKTRKKKAENKLFETQDNLNRVEDILHELEGQVEPLKIQASIAKDYLEKKKELEHVEIALTAYDIEELHGKWSTLKEKVQMAKEEELAESSAISAKEAKIEDTRDKIQALDESVDELQQVLLVTSEELEKLEGRKEVLKERKKNAVQNQEQLEEAIVQFQQKETVLKEELSKQEAVFETLQAEVKQLRAQVKEKQQALSLHNENVEEKIEQLKSDYFELLNSQASIRNELQLLDDQMSQSAVTLQRLADNNEKHLQERHDISARKAASETEFARIEQEIHSQVGAYRDMQTKYEQKKRQYEKNESALYQAYQYVQQARSKKDMLETMQGDFSGFYQGVKEVLKAKERLGGIRGAVLELISTEQKYETAIEIALGASAQHVVTDDEQSARKAIQYLKQNSFGRATFLPLSVIRDRQLQSRDAETAARHSSFLGVASELVTFDPAYRSVIQNLLGTVLITEDLKGANELAKLLGHRYRIVTLEGDVVNPGGSMTGGAVKKKNNSLLGRSRELEDVTKRLAEMEEKTALLEQEVKTLKHSIQDMEKKLADLRETGEGLRLKQQDVKGQLYELQVAEKNINTHLELYDQEKSALSESDEERKVRKRKLEEELSAVSEKMKQLEEDIDRLTKQKQTQSSTKESLSNELTELKIAAAKKEQASKGEEDNLARLKKELTETELALKEAKEDLSFLTSEMSSSTSGEEKLEEAAKHKLNDKTKTIELIALRRDQRIKLQHGLDTYERELKEMKRLYKQKTTLLKDEEVKLGRMEVELDNLLQCLREEYSLSFEGAKEKYQLETDPEEARKRVKLIKLAIEELGTVNLGSIDEFERVNERYKFLSEQKEDLTEAKNTLFQVIEEMDEEMTKRFNDTFVQIRSHFDQVFRSLFGGGRAELRLTDPNDLLHSGVEIIAQPPGKKLQNLNLLSGGERALTAIALLFSILKVRPVPFVVLDEVEAALDEANVFRFAQYLKKYSSDTQFIVITHRKGTMEEADVLYGVTMQESGVSKVISVKLEETKEFVQ | – | binds |
| Smc^3SV(D193C) (natural protein, B. subtilis, UniProt P51834 1-1186, looked up, engineered cysteine 193 cross-linked with M3M, Smc, Bacillus subtilis (Bsu), cys-free Smc^3SV background with D193C; also called D193C at contact 1^N; source: E. coli BL21-Gold (DE3), purified (HiTrap Blue, Heparin, gel filtration without reducing agent)) MFLKRLDVIGFKSFAERISVDFVKGVTAVVGPNGSGKSNITDAIRWVLGEQSARSLRGGKMEDIIFAGSDSRKRLNLAEVTLTLDNDDHFLPIDFHEVSVTRRVYRSGESEFLINNQPSRLKDIIDLFMDSGLGKEAFSIISQGKVEEILSSKAEDRRSIFEEAAGVLKYKTRKKKAENKLFETQDNLNRVECILHELEGQVEPLKIQASIAKDYLEKKKELEHVEIALTAYDIEELHGKWSTLKEKVQMAKEEELAESSAISAKEAKIEDTRDKIQALDESVDELQQVLLVTSEELEKLEGRKEVLKERKKNAVQNQEQLEEAIVQFQQKETVLKEELSKQEAVFETLQAEVKQLRAQVKEKQQALSLHNENVEEKIEQLKSDYFELLNSQASIRNELQLLDDQMSQSAVTLQRLADNNEKHLQERHDISARKAASETEFARIEQEIHSQVGAYRDMQTKYEQKKRQYEKNESALYQAYQYVQQARSKKDMLETMQGDFSGFYQGVKEVLKAKERLGGIRGAVLELISTEQKYETAIEIALGASAQHVVTDDEQSARKAIQYLKQNSFGRATFLPLSVIRDRQLQSRDAETAARHSSFLGVASELVTFDPAYRSVIQNLLGTVLITEDLKGANELAKLLGHRYRIVTLEGDVVNPGGSMTGGAVKKKNNSLLGRSRELEDVTKRLAEMEEKTALLEQEVKTLKHSIQDMEKKLADLRETGEGLRLKQQDVKGQLYELQVAEKNINTHLELYDQEKSALSESDEERKVRKRKLEEELSAVSEKMKQLEEDIDRLTKQKQTQSSTKESLSNELTELKIAAAKKEQASKGEEDNLARLKKELTETELALKEAKEDLSFLTSEMSSSTSGEEKLEEAAKHKLNDKTKTIELIALRRDQRIKLQHGLDTYERELKEMKRLYKQKTTLLKDEEVKLGRMEVELDNLLQYLREEYSLSFEGAKEKYQLETDPEEARKRVKLIKLAIEELGTVNLGSIDEFERVNERYKFLSEQKEDLTEAKNTLFQVIEEMDEEMTKRFNDTFVQIRSHFDQVFRSLFGGGRAELRLTDPNDLLHSGVEIIAQPPGKKLQNLNLLSGGERALTAIALLFSILKVRPVPFVVLDEVEAALDEANVFRFAQYLKKYSSDTQFIVITHRKGTMEEADVLYGVTMQESGVSKVISVKLEETKEFVQ | – | binds |
| Smc^3SV(A715C) (natural protein, B. subtilis, UniProt P51834 1-1186, looked up, engineered cysteine 715 cross-linked with M3M, Smc, Bacillus subtilis (Bsu), cys-free Smc^3SV background with A715C; also called A715C at contact 7^C; source: E. coli BL21-Gold (DE3), purified (HiTrap Blue, Heparin, gel filtration without reducing agent)) MFLKRLDVIGFKSFAERISVDFVKGVTAVVGPNGSGKSNITDAIRWVLGEQSARSLRGGKMEDIIFAGSDSRKRLNLAEVTLTLDNDDHFLPIDFHEVSVTRRVYRSGESEFLINNQPSRLKDIIDLFMDSGLGKEAFSIISQGKVEEILSSKAEDRRSIFEEAAGVLKYKTRKKKAENKLFETQDNLNRVEDILHELEGQVEPLKIQASIAKDYLEKKKELEHVEIALTAYDIEELHGKWSTLKEKVQMAKEEELAESSAISAKEAKIEDTRDKIQALDESVDELQQVLLVTSEELEKLEGRKEVLKERKKNAVQNQEQLEEAIVQFQQKETVLKEELSKQEAVFETLQAEVKQLRAQVKEKQQALSLHNENVEEKIEQLKSDYFELLNSQASIRNELQLLDDQMSQSAVTLQRLADNNEKHLQERHDISARKAASETEFARIEQEIHSQVGAYRDMQTKYEQKKRQYEKNESALYQAYQYVQQARSKKDMLETMQGDFSGFYQGVKEVLKAKERLGGIRGAVLELISTEQKYETAIEIALGASAQHVVTDDEQSARKAIQYLKQNSFGRATFLPLSVIRDRQLQSRDAETAARHSSFLGVASELVTFDPAYRSVIQNLLGTVLITEDLKGANELAKLLGHRYRIVTLEGDVVNPGGSMTGGAVKKKNNSLLGRSRELEDVTKRLAEMEEKTALLEQEVKTLKHSIQDMEKKLCDLRETGEGLRLKQQDVKGQLYELQVAEKNINTHLELYDQEKSALSESDEERKVRKRKLEEELSAVSEKMKQLEEDIDRLTKQKQTQSSTKESLSNELTELKIAAAKKEQASKGEEDNLARLKKELTETELALKEAKEDLSFLTSEMSSSTSGEEKLEEAAKHKLNDKTKTIELIALRRDQRIKLQHGLDTYERELKEMKRLYKQKTTLLKDEEVKLGRMEVELDNLLQYLREEYSLSFEGAKEKYQLETDPEEARKRVKLIKLAIEELGTVNLGSIDEFERVNERYKFLSEQKEDLTEAKNTLFQVIEEMDEEMTKRFNDTFVQIRSHFDQVFRSLFGGGRAELRLTDPNDLLHSGVEIIAQPPGKKLQNLNLLSGGERALTAIALLFSILKVRPVPFVVLDEVEAALDEANVFRFAQYLKKYSSDTQFIVITHRKGTMEEADVLYGVTMQESGVSKVISVKLEETKEFVQ | – | binds |
| Smc^3SV(Q320C) (natural protein, B. subtilis, UniProt P51834 1-1186, looked up, engineered cysteine 320 cross-linked with M3M, Smc, Bacillus subtilis (Bsu), cys-free Smc^3SV background with Q320C; also called Q320C at contact 4^N; source: E. coli BL21-Gold (DE3), purified (HiTrap Blue, Heparin, gel filtration without reducing agent)) MFLKRLDVIGFKSFAERISVDFVKGVTAVVGPNGSGKSNITDAIRWVLGEQSARSLRGGKMEDIIFAGSDSRKRLNLAEVTLTLDNDDHFLPIDFHEVSVTRRVYRSGESEFLINNQPSRLKDIIDLFMDSGLGKEAFSIISQGKVEEILSSKAEDRRSIFEEAAGVLKYKTRKKKAENKLFETQDNLNRVEDILHELEGQVEPLKIQASIAKDYLEKKKELEHVEIALTAYDIEELHGKWSTLKEKVQMAKEEELAESSAISAKEAKIEDTRDKIQALDESVDELQQVLLVTSEELEKLEGRKEVLKERKKNAVQNQECLEEAIVQFQQKETVLKEELSKQEAVFETLQAEVKQLRAQVKEKQQALSLHNENVEEKIEQLKSDYFELLNSQASIRNELQLLDDQMSQSAVTLQRLADNNEKHLQERHDISARKAASETEFARIEQEIHSQVGAYRDMQTKYEQKKRQYEKNESALYQAYQYVQQARSKKDMLETMQGDFSGFYQGVKEVLKAKERLGGIRGAVLELISTEQKYETAIEIALGASAQHVVTDDEQSARKAIQYLKQNSFGRATFLPLSVIRDRQLQSRDAETAARHSSFLGVASELVTFDPAYRSVIQNLLGTVLITEDLKGANELAKLLGHRYRIVTLEGDVVNPGGSMTGGAVKKKNNSLLGRSRELEDVTKRLAEMEEKTALLEQEVKTLKHSIQDMEKKLADLRETGEGLRLKQQDVKGQLYELQVAEKNINTHLELYDQEKSALSESDEERKVRKRKLEEELSAVSEKMKQLEEDIDRLTKQKQTQSSTKESLSNELTELKIAAAKKEQASKGEEDNLARLKKELTETELALKEAKEDLSFLTSEMSSSTSGEEKLEEAAKHKLNDKTKTIELIALRRDQRIKLQHGLDTYERELKEMKRLYKQKTTLLKDEEVKLGRMEVELDNLLQYLREEYSLSFEGAKEKYQLETDPEEARKRVKLIKLAIEELGTVNLGSIDEFERVNERYKFLSEQKEDLTEAKNTLFQVIEEMDEEMTKRFNDTFVQIRSHFDQVFRSLFGGGRAELRLTDPNDLLHSGVEIIAQPPGKKLQNLNLLSGGERALTAIALLFSILKVRPVPFVVLDEVEAALDEANVFRFAQYLKKYSSDTQFIVITHRKGTMEEADVLYGVTMQESGVSKVISVKLEETKEFVQ | – | binds |
